From article PMC8000184, “Structural Insights into a Bifunctional Peptide Methionine Sulfoxide Reductase MsrA/B Fusion Protein from Helicobacter pylori” (Antioxidants, 2021)

Assays:
[1] = tested on: CN(C)c1ccc(N=Nc2ccc(S(=O)(=O)N[C@@H](CC[S@@+](C)[O-])C(=O)O)cc2)cc1; assay: DTT-dependent HPLC assay of dabsyl-Met; assay type: biochemical, Helicobacter pylori; details: 20 mM DTT, 50 mM sodium phosphate pH 7.5, 50 mM NaCl, 37 °C, Met-R-O, methods dabsyl-Met-R-O, MsrB site
[2] = tested on: CN(C)c1ccc(N=Nc2ccc(S(=O)(=O)N[C@@H](CC[S@+](C)[O-])C(=O)O)cc2)cc1; assay: DTT-dependent HPLC assay of dabsyl-Met; assay type: biochemical, Helicobacter pylori; details: 20 mM DTT, 50 mM sodium phosphate pH 7.5, 50 mM NaCl, 37 °C, Met-S-O, methods dabsyl-Met-S-O, MsrA site

## HpMsrAB (WT) (Helicobacter pylori 26695)
[1]
  Km: 50 ± 20 µM
  kcat: 0.157 ± 0.00667 s⁻¹
  kcat/Km: 3130 ± 133 M⁻¹ s⁻¹
[2]
  Km: 170 ± 60 µM
  kcat: 0.17 ± 0.0217 s⁻¹
  kcat/Km: 1000 ± 117 M⁻¹ s⁻¹
